Measured values published in publication PMC3696110, “Hsp70 Oligomerization Is Mediated by an Interaction between the Interdomain Linker and the Substrate-Binding Domain” (PLoS ONE, 2013).

Target: SBD641 (384-641), full-length substrate-binding domain of human Hsp70 with the interdomain linker (human) (UniProt P0DMV8)
Assay: native MS; nESI-MS of SBD641 with NR peptide at 1:1 molar ratio, 150 mM ammonium acetate pH 7.4, sample cone voltage 60 V (raised for collisional activation)

B1: NR peptide (NRLLLTG) (peptide)
peptide: NRLLLTG
With B1 the peptide molecules bound per SBD641 dimer was under 2 and the stoichiometry N was 1.
